Assay results published in PMC7465474, “Interplay of Structural Disorder and Short Binding Elements in the Cellular Chaperone Function of Plant Dehydrin ERD14” (Cells, 2020).

Target: T1, citrate synthase (CS) (E. coli (endogenous in AVB101), UniProt P0ABH7 1-427)
T1 sequence (looked up): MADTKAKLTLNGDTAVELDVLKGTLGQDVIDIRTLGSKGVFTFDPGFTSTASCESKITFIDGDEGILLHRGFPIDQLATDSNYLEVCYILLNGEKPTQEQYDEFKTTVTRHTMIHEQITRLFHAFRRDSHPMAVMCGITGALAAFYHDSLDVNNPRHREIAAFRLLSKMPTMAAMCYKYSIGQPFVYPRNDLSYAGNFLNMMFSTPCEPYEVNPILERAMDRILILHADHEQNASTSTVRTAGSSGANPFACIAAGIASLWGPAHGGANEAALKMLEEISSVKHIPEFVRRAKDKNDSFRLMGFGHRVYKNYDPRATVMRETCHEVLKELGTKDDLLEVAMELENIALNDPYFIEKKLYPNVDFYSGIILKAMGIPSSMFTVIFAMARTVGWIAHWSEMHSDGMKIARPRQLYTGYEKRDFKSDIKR
Test: cell-based or functional assay

B1: Early Response to Dehydration 14 (ERD14) of A. thaliana, wild type, biotinylated in the cell (natural protein, UniProt P42763 1-185, looked up)
chain: MAEEIKNVPEQEVPKVATEESSAEVTDRGLFDFLGKKKDETKPEETPIASEFEQKVHISEPEPEVKHESLLEKLHRSDSSSSSSSEEEGSDGEKRKKKKEKKKPTTEVEVKEEEKKGFMEKLKEKLPGHKKPEDGSAVAAAPVVVPPPVEEAHPVEKKGILEKIKEKLPGYHPKTTVEEEKKDKE
modifications: biotin (in-cell biotinylation)
  enthalpy change of unfolding (ΔHm) of 2 μM CS, two-state fit of the CD thermal denaturation, with 2, 5 and 13 μM purified WT ERD14 (396 falling to 316 kJ/mol; CS alone 475 kJ/mol): 94.6 kcal/mol
  melting temperature (Tm) of 2 μM CS, thermal denaturation followed by CD at 220 nm, with 2, 5 and 13 μM purified WT ERD14 (50.5 to 55.3 °C; CS alone 49.5 °C): 55.3 °C
